Measurements from patent publication US20030166021A1.

Biological target: c-Myc (human) (UniProt P01106)
Assay: cell-based or functional assay

c-Myc (human), sequence (P01106 16-454 limits assumed): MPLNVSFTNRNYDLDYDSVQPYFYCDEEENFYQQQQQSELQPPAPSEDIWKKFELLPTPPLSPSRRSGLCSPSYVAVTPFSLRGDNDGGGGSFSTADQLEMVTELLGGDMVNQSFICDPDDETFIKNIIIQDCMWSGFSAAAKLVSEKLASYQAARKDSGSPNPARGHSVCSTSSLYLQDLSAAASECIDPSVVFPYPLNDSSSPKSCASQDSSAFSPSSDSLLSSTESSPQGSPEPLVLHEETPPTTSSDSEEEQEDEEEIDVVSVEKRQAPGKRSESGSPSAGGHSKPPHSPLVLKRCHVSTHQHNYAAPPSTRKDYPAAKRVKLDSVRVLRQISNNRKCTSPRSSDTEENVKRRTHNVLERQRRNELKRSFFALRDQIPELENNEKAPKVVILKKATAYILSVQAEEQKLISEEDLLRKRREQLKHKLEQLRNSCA

| focus formation in the Ras cooperation assay (myc + ras, rat embryo fibroblasts) [fold] | focus formation in the Ras cooperation assay (MYC + RAS, rat embryo fibroblasts) [fold] | fold decrease in focus formation by MYC (MYC + activated RAS, rat embryo fibroblasts) [fold] | Substance |
| --- | --- | --- | --- |
| 2.4 | – | – | ATG99 polypeptide (murine clone #99 ORF with initiator methionine, vector neoCMV-ATG99) (from UniProt O08539 310-565) |
| – | 7 | 6 | human Bin1 (Box-dependent Myc-Interacting protein-1), full-length 451 amino acid product of cDNA p99f (from UniProt O00499 9-593) |
